# Measured values as given in paper PMC3947186 (Structure (London, England : 1993), 2013).
# Read-outs that look alike come from different tables or passages of the source.
# Tests used:
# Test in all cases: ITC
# [1] = target: mouse CSL core domain (residues 53-474), wild type (mouse) (UniProt P31266)
# [2] = target: mouse CSL core domain (53-474) mutant Q333R (mouse) (UniProt P31266)
# [3] = target: BTD of mouse CSL (residues 203-393) (mouse) (UniProt P31266)
# [4] = target: mouse CSL core domain (53-474) mutant V263R (mouse) (UniProt P31266)
# Chain of mouse CSL core domain (53-474) mutant V263R (mouse) (P31266 53-474 V263R): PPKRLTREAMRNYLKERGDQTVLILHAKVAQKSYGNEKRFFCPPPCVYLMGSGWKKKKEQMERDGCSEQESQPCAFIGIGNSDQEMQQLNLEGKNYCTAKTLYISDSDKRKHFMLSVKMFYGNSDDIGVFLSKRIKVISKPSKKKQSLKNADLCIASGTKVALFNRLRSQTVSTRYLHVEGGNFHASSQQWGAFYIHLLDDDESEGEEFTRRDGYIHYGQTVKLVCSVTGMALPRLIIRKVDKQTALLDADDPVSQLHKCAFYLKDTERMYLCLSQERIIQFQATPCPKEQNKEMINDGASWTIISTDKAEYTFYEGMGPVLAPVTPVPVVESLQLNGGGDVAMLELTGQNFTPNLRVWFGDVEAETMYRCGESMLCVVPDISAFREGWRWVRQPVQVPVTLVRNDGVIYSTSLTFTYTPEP
# [5] = target: mouse CSL core domain (53-474) mutant A284R (mouse) (UniProt P31266)
# Chain of mouse CSL core domain (53-474) mutant A284R (mouse) (P31266 53-474 A284R): as the sequence (P31266 53-474 V263R) above, with R211V, A232R counted along it
# [6] = target: mouse CSL core domain (53-474) mutant F261R (mouse) (UniProt P31266)
# Chain of mouse CSL core domain (53-474) mutant F261R (mouse) (P31266 53-474 F261R): as the sequence (P31266 53-474 V263R) above, with F209R, R211V counted along it
# [7] = target: mouse CSL core domain (residues 53-474), wild type (mouse) (UniProt P31266); remark: listed apart in the source
# [8] = target: mouse CSL core domain (residues 53-474), wild type (mouse) (UniProt P31266); remark: listed apart in the source
# [9] = target: mouse CSL core domain (residues 53-474), wild type (mouse, UniProt P31266 53-474)
# Chain of mouse CSL core domain (residues 53-474), wild type (P31266 53-474): as the sequence (P31266 53-474 V263R) above, with R211V counted along it
# [10] = target: mouse CSL core domain (residues 53-474), wild type (mouse) (UniProt P31266); remark: listed apart in the source
# Chain of mouse CSL core domain (53-474) mutant Q333R (mouse) (P31266 53-474 Q333R): as the sequence (P31266 53-474 V263R) above, with R211V, Q281R counted along it
# Chain of mouse CSL core domain (residues 53-474), wild type (mouse) (P31266 53-474): as the sequence (P31266 53-474 V263R) above, with R211V counted along it
# Chain of BTD of mouse CSL (residues 203-393) (mouse) (P31266 203-393): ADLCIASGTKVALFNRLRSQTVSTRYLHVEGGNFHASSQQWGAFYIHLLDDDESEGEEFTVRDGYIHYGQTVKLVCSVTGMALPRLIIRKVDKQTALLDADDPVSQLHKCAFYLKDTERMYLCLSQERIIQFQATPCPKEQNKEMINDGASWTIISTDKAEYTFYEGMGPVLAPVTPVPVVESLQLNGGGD
molecule,measurement,setting,value
KyoT2 KD196AA (in the construct 184-210) (peptide),Ka,[1],1.2e+08 M⁻¹
same,Kd,[1],12 nM
same,dH,[1],-16 kcal/mol
KyoT2 V186A (in the construct 184-210) (peptide),Kd,[1],69 nM
same,dH,[1],-13.7 kcal/mol
"RAM domain of Notch1, mutant Q1763A (from UniProt P46531 19-2555) (domain or fragment)",Ka,[1],2e+07 M⁻¹
same,Kd,[1],22 nM
same,dH,[1],-7.5 kcal/mol
"RAM domain of Notch1, wild type (from UniProt P46531 19-2555) (domain or fragment)",Ka,[1],6.8e+07 M⁻¹
same,Kd,[1],15 nM
same,dH,[1],-18.2 kcal/mol
mouse KyoT2 (residues 182-210) (peptide),Ka,[1],7.1e+07 M⁻¹
same,Kd,[1],15 nM
same,dH,[1],-16 kcal/mol
mouse KyoT2 (residues 184-200) (peptide),Ka,[1],3.1e+07 M⁻¹
same,dH,[1],-13.1 kcal/mol
mouse KyoT2 (residues 184-210) (peptide),Ka,[2],2e+07 M⁻¹
same,Kd,[2],51 nM
same,dH,[2],-11.7 kcal/mol
same,Ka,[1],8.5e+07 M⁻¹
same,Kd,[1],12 nM
same,dH,[1],-15.5 kcal/mol
same,stoichiometry N,[1],1
same,Kd,[3],26 nM
same,dH,[3],-13.6 kcal/mol
same,Ka,[4],3.1e+07 M⁻¹
same,Kd,[4],19 nM
same,dH,[4],-12.9 kcal/mol
same,Kd,[5],7.2 µM
same,dH,[5],-10.5 kcal/mol
same,Ka,[6],340000 M⁻¹
same,Kd,[6],6.3 µM
same,dH,[6],-5.6 kcal/mol
same,Ka,[7],9.4e+07 M⁻¹
same,Kd,[7],11 nM
same,dH,[7],-14.6 kcal/mol
same,Ka,[8],1.1e+08 M⁻¹
same,Kd,[8],11 nM
same,dH,[8],-11 kcal/mol
KAPVWWPMKD [KyoT2 peptide KAPVWWPMKD (residues 187-196)],fold enhancement in binding against the peptide APVWWPMK,[9],~40 fold
VWWP [KyoT2 tetrapeptide VWWP (residues 190-193)],Kd,[10],8 µM
APVWWPMK [KyoT2 peptide APVWWPMK (residues 188-195)],binding result,[9],binds
